From PMC5551413
Blank lines part the entries; values can stand above or below the substance they belong to.

Experiments:
[1] = target: Streptococcus pyogenes NH3-dependent NAD+ synthetase (spNadE) (Streptococcus pyogenes); test: crystal structure
[2] = target: Streptococcus pyogenes NH3-dependent NAD+ synthetase (spNadE) (Streptococcus pyogenes); test: dynamic light scattering
[3] = target: Streptococcus pyogenes NH3-dependent NAD+ synthetase (spNadE) (Streptococcus pyogenes); test: SEC
[4] = target: Streptococcus pyogenes quinolinate phosphoribosyltransferase (spNadC) (Streptococcus pyogenes); test: dynamic light scattering
[5] = target: Streptococcus pyogenes quinolinate phosphoribosyltransferase (spNadC) (Streptococcus pyogenes); test: SEC
[6] = target: spNadC Δ69A deletion mutant (Streptococcus pyogenes); test: crystal structure

- stoichiometry N [1]: 2
- stoichiometry N [2]: 2
- stoichiometry N [3]: 2
Substance: Streptococcus pyogenes NH3-dependent NAD+ synthetase (spNadE) (enzyme)

- stoichiometry N [4]: 6
- stoichiometry N [5]: 6
Substance: Streptococcus pyogenes quinolinate phosphoribosyltransferase (spNadC) (enzyme)

Substance: spNadC Δ69A deletion mutant (enzyme)
- stoichiometry N [6]: 6
